This passage reports OD detection value results from patent US20260265354A1 (JIANGSU MABWELL HEALTH PHARMACEUTICAL R AND D, published 2026).

Assay [1] has as its target T1, Nectin-3 (UniProt Q9NQS3 58-404, limits assumed).
T1 construct: Bought recombinant protein; also called CD113; PVRL-3
Briefly: ELISA, coated antigen, antibody at 10 ng/ml. Here is the method: (§1) Coating: Nectin-1, Nectin-2, Nectin-3, Nectin-4, Nectin-like-1, Nectin-like-2, Nectin-like-3, Nectin-like-4, and Nectin-like-5 were diluted to 5 μg/ml in coating buffer (carbonate buffer, pH 9.6) respectively. A 96-well plate was coat with 100 μl per well and incubated overnight at 2-8° C.;
(§2) Sample loading: The plate was taken out, patted dry, and washed twice with 200 μl/well of PBST, then patted dry. The Nectin-4 antibodies prepared in Example 1 (antibody MM11, antibody R012, and antibody R036) were diluted with 1% BSA/PBST to concentrations of 10 μg/ml, 1 μg/ml, 100 ng/ml, and 10 ng/ml, respectively. 1% BSA/PBST solution for dilution was set as a blank control. 100 μl per well was added to the 96-well plate, and incubated at room temperature for 2 hours;
(§3) Reaction termination and plate reading: 100 μl/well of 1 mol/L H3PO4 was added to terminate the reaction and the plated was read. The absorbances of wells in the plate at 450 nm with 650 nm as reference wavelength were read and recorded as OD_{450 nm-650 nm}.
In general terms: In an ELISA, binding on a coated surface is turned into a signal by an enzyme label.

In assay [2] the target is T2, Nectin-like-2 (UniProt Q9BY67 45-374, limits assumed).
T2 construct: Bought recombinant protein; also called CADM1; IgSF4
T2 sequence (looked up): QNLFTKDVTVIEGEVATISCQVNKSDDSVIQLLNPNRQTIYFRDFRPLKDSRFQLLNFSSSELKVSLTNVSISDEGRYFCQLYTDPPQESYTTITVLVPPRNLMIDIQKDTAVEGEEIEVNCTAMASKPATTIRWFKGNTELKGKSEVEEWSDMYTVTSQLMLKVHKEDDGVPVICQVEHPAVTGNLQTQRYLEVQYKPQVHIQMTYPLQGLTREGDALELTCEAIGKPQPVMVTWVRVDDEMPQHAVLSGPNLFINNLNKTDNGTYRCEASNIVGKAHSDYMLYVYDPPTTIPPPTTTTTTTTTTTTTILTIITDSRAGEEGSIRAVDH
Briefly: ELISA, coated antigen, antibody at 10 ng/ml. Here is the method:
as §1, §2, §3

Assay [3] concerns the target T3, Nectin-like-1 (UniProt Q8N126 25-330, limits assumed).
T3 construct: Bought recombinant protein; also called CADM3; IgSF4B
T3 sequence (looked up): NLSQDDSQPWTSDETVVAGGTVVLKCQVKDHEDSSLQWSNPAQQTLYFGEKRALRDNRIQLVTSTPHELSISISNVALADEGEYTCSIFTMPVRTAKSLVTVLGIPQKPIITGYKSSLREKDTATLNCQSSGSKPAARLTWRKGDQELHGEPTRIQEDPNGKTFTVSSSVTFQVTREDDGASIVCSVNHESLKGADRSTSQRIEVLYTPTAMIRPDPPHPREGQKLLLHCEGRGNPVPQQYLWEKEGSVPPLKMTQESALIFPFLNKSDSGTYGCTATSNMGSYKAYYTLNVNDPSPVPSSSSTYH
Briefly: ELISA, coated antigen, antibody at 10 ng/ml. The procedure:
as §1, §2, §3

Another assay deals with T4, Nectin-2 (UniProt Q92692 32-360, limits assumed).
T4 construct: Bought recombinant protein; also called CD112; PVRL-2
T4 sequence (looked up): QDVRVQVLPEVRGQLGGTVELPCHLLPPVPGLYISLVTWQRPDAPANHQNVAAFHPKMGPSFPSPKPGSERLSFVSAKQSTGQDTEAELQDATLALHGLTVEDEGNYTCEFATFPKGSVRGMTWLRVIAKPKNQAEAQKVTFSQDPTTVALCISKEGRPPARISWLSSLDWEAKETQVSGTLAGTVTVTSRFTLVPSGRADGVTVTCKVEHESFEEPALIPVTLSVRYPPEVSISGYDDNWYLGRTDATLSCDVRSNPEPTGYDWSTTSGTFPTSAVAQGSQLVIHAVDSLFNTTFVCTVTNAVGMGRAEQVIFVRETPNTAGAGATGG
Briefly: ELISA, coated antigen, 0 ng/ml antibody (blank control). The procedure:
as §1, §2, §3

In assay [4] the target is T1, Nectin-3. Described as above. The procedure:
as §1, §2, §3

The target of assay [5] is T2, Nectin-like-2. Described as above. Here is the method: as §1, §2, §3
The target in assay [6] is T3, Nectin-like-1. The description is as above. Here is the method: as §1, §2, §3
The next assay concerns the target T5, Nectin-like-5 (UniProt P15151 21-343).
T5 construct: Bought recombinant protein; also called CD155; PVR
T5 sequence (looked up): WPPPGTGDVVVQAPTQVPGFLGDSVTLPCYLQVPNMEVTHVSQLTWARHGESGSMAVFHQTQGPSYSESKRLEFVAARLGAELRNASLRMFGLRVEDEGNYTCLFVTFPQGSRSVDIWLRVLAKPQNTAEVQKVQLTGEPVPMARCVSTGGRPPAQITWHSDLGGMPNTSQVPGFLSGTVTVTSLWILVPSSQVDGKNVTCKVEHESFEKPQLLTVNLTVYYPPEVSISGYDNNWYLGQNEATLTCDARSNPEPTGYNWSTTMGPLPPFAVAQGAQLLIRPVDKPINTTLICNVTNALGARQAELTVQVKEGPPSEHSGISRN
Described as above. The procedure: as §1, §2, §3

The target in assay [7] is T6, recombinant human Nectin-4 protein (human, UniProt Q96NY8 32-349).
T6 construct: Prepared in-house (Jiangsu Mabwell) by transient transfection of CHO cells; also called PVRL-4; PRR-4
T6 sequence: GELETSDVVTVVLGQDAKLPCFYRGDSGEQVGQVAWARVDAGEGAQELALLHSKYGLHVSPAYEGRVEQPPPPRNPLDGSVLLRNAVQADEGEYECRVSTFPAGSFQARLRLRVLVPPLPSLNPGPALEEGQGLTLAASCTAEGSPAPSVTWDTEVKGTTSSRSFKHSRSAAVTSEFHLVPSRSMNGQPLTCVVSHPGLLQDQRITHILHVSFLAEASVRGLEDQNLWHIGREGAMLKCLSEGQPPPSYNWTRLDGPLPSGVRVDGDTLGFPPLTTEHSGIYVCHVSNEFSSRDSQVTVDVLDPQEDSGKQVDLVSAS
The description is as above. Here is the method: as §1, §2, §3

T1 sequence (Q9NQS3 58-404 limits assumed): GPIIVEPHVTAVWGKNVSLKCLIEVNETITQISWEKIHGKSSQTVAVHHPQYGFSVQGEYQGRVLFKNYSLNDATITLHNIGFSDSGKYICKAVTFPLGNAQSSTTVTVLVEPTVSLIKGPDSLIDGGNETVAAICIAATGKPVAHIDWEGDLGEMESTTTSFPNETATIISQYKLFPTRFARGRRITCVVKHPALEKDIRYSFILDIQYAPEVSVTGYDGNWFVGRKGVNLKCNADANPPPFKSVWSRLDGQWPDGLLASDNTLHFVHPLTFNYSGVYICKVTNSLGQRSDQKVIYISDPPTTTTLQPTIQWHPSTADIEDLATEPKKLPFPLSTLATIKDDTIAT

B1: Antibody MM11 (antibody, mouse IgG1, kappa, V domains shown)
VH: DVQLQESGPGLVKPSQSLSLTCSVTGYSITSNFYWNWIRQFPGNRLEWMGYISYDGSNNYNPSLKNRISISRDTSKNQFFLKLNSVTTEDTATYYCVRADYWGQGTLVTVSA
VL: DTVMTQTPLSLPVSLGDQASISCRSSQSLESSDGHAYLNWYLQKPGQSPQLLIYRVSNRFSGVLHRFSGSGSGTDFTLKISRVEAEDLGVYFCLQFTHVPFTFGSGTKLEIKR
notes: Mouse monoclonal antibody from hybridoma; also called Nectin-4 mouse monoclonal antibody MM11; mouse antibody MM11
As to B1, the OD detection value in the assay with Nectin-3 [1] amounted to 0.006 OD450 nm-650 nm; in the assay with Nectin-like-2 [2] it was 0.007 OD450 nm-650 nm; with Nectin-like-1 [3], 0.006 OD450 nm-650 nm; in the assay with Nectin-2, 0.007 OD450 nm-650 nm; in the assay with Nectin-3 [4], 0.006 OD450 nm-650 nm; with Nectin-like-2 [5], 0.006 OD450 nm-650 nm. Besides, the OD detection value with Nectin-like-1 [6] turned out to be 0.007 OD450 nm-650 nm; with Nectin-like-5, 0.011 OD450 nm-650 nm; in assay [7] it was 0.008 OD450 nm-650 nm.

B2: Antibody R012 (antibody, V domains shown)
VH: SKSVEESGGRLVTPGTPLTLTCTVSGFSLSTYAMSWVRQAPGKGLEYIGIISGRGTTYYASWLKGRFTISKTSTTVDLKITSPTTEDTATYFCARDAGISDVYTGYFNLWGQGTLVTVSS
VL: QPVLAQLPSASAALGASAKLTCTLSSAHRTYTIAWYQQQQGEAPRYLMMLKSDGSYTKGTGVPDRFSGSSSGADRYLIISSVQAADEADYYCGADDSGGYVFGGGTQLTVTG
notes: Rabbit monoclonal antibody from phage display; also called Nectin-4 rabbit monoclonal antibody R012; rabbit antibody R012
Consider B2, for which the OD detection value with Nectin-3 [1] was 0.008 OD450 nm-650 nm; in the assay with Nectin-like-2 [2] it was 0.008 OD450 nm-650 nm; with Nectin-like-1 [3], 0.008 OD450 nm-650 nm; in the assay with Nectin-2, 0.009 OD450 nm-650 nm; with Nectin-3 [4], 0.008 OD450 nm-650 nm; in the assay with Nectin-like-2 [5], 0.008 OD450 nm-650 nm. Also, the OD detection value (in the assay with Nectin-like-1 [6]; with Nectin-like-5; in assay [7]) was 0.008 OD450 nm-650 nm throughout.

B3: Antibody R036 (antibody, V domains shown)
VH: SQSVEESGGRLVTPGTPLTLTCTVSGFSLSSYAMSWVRQAPGKGLEYIGIIGGRGTTYYAIWAKGRFTISKTSTTVDLKITSPTTEDTATYFCARDAGTTYVGTTYVATGYFNLWGQGTLVTVSS
VL: QPVLTQPPSASAALGASAKLTCTLSSAHKTYTIAWYQQQQGEAPRYLMILKSDGSYTRGTGVPDRFSGSSSGADRYLIISSVQADDEADYYCGADDSGGYVFGGGTQLTVTG
notes: Rabbit monoclonal antibody from phage display; also called Nectin-4 rabbit monoclonal antibody R036; rabbit antibody R036
In the case of B3, the OD detection value with Nectin-3 [1], with Nectin-like-2 [2], in the assay with Nectin-like-1 [3], with Nectin-2, with Nectin-3 [4] and in the assay with Nectin-like-2 [5] was 0.007 OD450 nm-650 nm each time. The OD detection value was found to be 0.007 OD450 nm-650 nm with Nectin-like-1 [6], 0.008 OD450 nm-650 nm in the assay with Nectin-like-5 and 0.007 OD450 nm-650 nm in assay [7].
